# Assay results as given in patent US20240209076A1 (KODIAK SCIENCES, published 2024).
# Positions count from the first letter of the chain named. Names and notes keep the numbering of the source.
# B1: anti-IL-6 antibody, heavy chain S35Q, light chain WT (antibody, IgG1, V domains shown)
# VH: EVQLVESGGGLVQPGGSLRLSCAASGFTFSPFAMQWVRQAPGKGLEWVAKISPGGSWTYYSDTVTGRFTFSLDTSKSTAYLQMNSLRAEDTAVYYCARQLWGYYALDIWGQGTLVTVSS
# VL: DIQLTQSPSSLSASVGDRVTITCSASISVSYMYWYQQKPGKAPKLLIYDMSNLASGVPSRFSGSGSGTDFTLTISSLQPEDFATYYCMQWSGYPYTFGQGTKVEIK
# notes: Full IgG1 tested; V domains derived as in m2
# B2: anti-IL-6 antibody, heavy chain T65Y, light chain WT (antibody, IgG1, V domains shown)
# VH: B1 VH with Q35S, T65Y
# VL: B1 VL
# notes: as for B1
# B3: anti-IL-6 antibody, heavy chain T58V, light chain WT (antibody, IgG1, V domains shown)
# VH: B1 VH with Q35S, T58V
# VL: B1 VL
# notes: as for B1
# B4: anti-IL-6 antibody, heavy chain V48I, light chain WT (antibody, IgG1, V domains shown)
# VH: B1 VH with Q35S, V48I
# VL: B1 VL
# notes: as for B1
# B5: anti-IL-6 antibody, heavy chain Y103D, light chain WT (antibody, IgG1, V domains shown)
# VH: B1 VH with Q35S, Y103D
# VL: B1 VL
# notes: as for B1
# B6: anti-IL-6 antibody, heavy chain WT, light chain S28R (antibody, IgG1, V domains shown)
# VH: B1 VH with Q35S
# VL: B1 VL with S28R
# notes: as for B1
# B7: anti-IL-6 antibody, heavy chain Y103E, light chain WT (antibody, IgG1, V domains shown)
# VH: B1 VH with Q35S, Y103E
# VL: B1 VL
# notes: as for B1
# B8: anti-IL-6 antibody, heavy chain T28Y, light chain WT (antibody, IgG1, V domains shown)
# VH: B1 VH with T28Y, Q35S
# VL: B1 VL
# notes: as for B1
# B9: anti-IL-6 antibody, heavy chain T63K, light chain WT (antibody, IgG1, V domains shown)
# VH: B1 VH with Q35S, T63K
# VL: B1 VL
# notes: as for B1
# B10: anti-IL-6 antibody, heavy chain WT, light chain S24I (antibody, IgG1, V domains shown)
# VH: B1 VH with Q35S
# VL: B1 VL with S24I
# notes: as for B1
# B11: anti-IL-6 antibody, heavy chain WT, light chain S28E (antibody, IgG1, V domains shown)
# VH: B1 VH with Q35S
# VL: B1 VL with S28E
# notes: as for B1
# B12: anti-IL-6 antibody, heavy chain S56H, light chain WT (antibody, IgG1, V domains shown)
# VH: B1 VH with Q35S, S56H
# VL: B1 VL
# notes: as for B1
# B13: anti-IL-6 antibody, heavy chain V48Q, light chain WT (antibody, IgG1, V domains shown)
# VH: B1 VH with Q35S, V48Q
# VL: B1 VL
# notes: as for B1
# B14: anti-IL-6 antibody, heavy chain S61A, light chain WT (antibody, IgG1, V domains shown)
# VH: B1 VH with Q35S, S61A
# VL: B1 VL
# notes: as for B1
# B15: anti-IL-6 antibody, heavy chain T63G, light chain WT (antibody, IgG1, V domains shown)
# VH: B1 VH with Q35S, T63G
# VL: B1 VL
# notes: as for B1
# B16: anti-IL-6 antibody, heavy chain T28A, light chain WT (antibody, IgG1, V domains shown)
# VH: B1 VH with T28A, Q35S
# VL: B1 VL
# notes: as for B1
# B17: anti-IL-6 antibody, heavy chain S56R, light chain WT (antibody, IgG1, V domains shown)
# VH: B1 VH with Q35S, S56R
# VL: B1 VL
# notes: as for B1
# B18: anti-IL-6 antibody, heavy chain T63E, light chain WT (antibody, IgG1, V domains shown)
# VH: B1 VH with Q35S, T63E
# VL: B1 VL
# notes: as for B1
# B19: anti-IL-6 antibody, heavy chain T28K, light chain WT (antibody, IgG1, V domains shown)
# VH: B1 VH with T28K, Q35S
# VL: B1 VL
# notes: as for B1
# B20: anti-IL-6 antibody, heavy chain T63D, light chain WT (antibody, IgG1, V domains shown)
# VH: B1 VH with Q35S, T63D
# VL: B1 VL
# notes: as for B1
# B21: anti-IL-6 antibody, heavy chain T28E, light chain WT (antibody, IgG1, V domains shown)
# VH: B1 VH with T28E, Q35S
# VL: B1 VL
# notes: as for B1
# B22: anti-IL-6 antibody, heavy chain T65G, light chain WT (antibody, IgG1, V domains shown)
# VH: B1 VH with Q35S, T65G
# VL: B1 VL
# notes: as for B1
# B23: anti-IL-6 antibody, heavy chain Y104V, light chain WT (antibody, IgG1, V domains shown)
# VH: B1 VH with Q35S, Y104V
# VL: B1 VL
# notes: as for B1
# B24: anti-IL-6 antibody, heavy chain WT, light chain S24K (antibody, IgG1, V domains shown)
# VH: B1 VH with Q35S
# VL: B1 VL with S24K
# notes: as for B1
# B25: anti-IL-6 antibody, heavy chain S61R, light chain WT (antibody, IgG1, V domains shown)
# VH: B1 VH with Q35S, S61R
# VL: B1 VL
# notes: as for B1
# B26: anti-IL-6 antibody, heavy chain WT, light chain S24V (antibody, IgG1, V domains shown)
# VH: B1 VH with Q35S
# VL: B1 VL with S24V
# notes: as for B1
# B27: anti-IL-6 antibody, heavy chain T58K, light chain WT (antibody, IgG1, V domains shown)
# VH: B1 VH with Q35S, T58K
# VL: B1 VL
# notes: as for B1
# B28: anti-IL-6 antibody, heavy chain WT, light chain S26H (antibody, IgG1, V domains shown)
# VH: B1 VH with Q35S
# VL: B1 VL with S26H
# notes: as for B1
# B29: anti-IL-6 antibody, heavy chain T58R, light chain WT (antibody, IgG1, V domains shown)
# VH: B1 VH with Q35S, T58R
# VL: B1 VL
# notes: as for B1
# B30: anti-IL-6 antibody, heavy chain V64A, light chain WT (antibody, IgG1, V domains shown)
# VH: B1 VH with Q35S, V64A
# VL: B1 VL
# notes: as for B1
# B31: anti-IL-6 antibody, heavy chain Y103S, light chain WT (antibody, IgG1, V domains shown)
# VH: B1 VH with Q35S, Y103S
# VL: B1 VL
# notes: as for B1
# B32: anti-IL-6 antibody, heavy chain T63Q, light chain WT (antibody, IgG1, V domains shown)
# VH: B1 VH with Q35S, T63Q
# VL: B1 VL
# notes: as for B1
# B33: anti-IL-6 antibody, heavy chain WT, light chain S24P (antibody, IgG1, V domains shown)
# VH: B1 VH with Q35S
# VL: B1 VL with S24P
# notes: as for B1
# B34: anti-IL-6 antibody, heavy chain WT, light chain S26G (antibody, IgG1, V domains shown)
# VH: B1 VH with Q35S
# VL: B1 VL with S26G
# notes: as for B1
# B35: anti-IL-6 antibody, heavy chain WT, light chain S26K (antibody, IgG1, V domains shown)
# VH: B1 VH with Q35S
# VL: B1 VL with S26K
# notes: as for B1
# Target: T1, recombinant human IL-6 (human, UniProt P05231 30-212)
# T1 construct: Flowed in solution over the captured antibodies
# Test: SPR (Biacore), supernatant IgG on Protein A, 25 C
# Description: Antibodies were captured on a Protein A chip (GE) by injecting 1:20 dilution of cell supernatant at 10 μL/min for 60 seconds. […] The sensor chip was regenerated by a 60 seconds injection of 10 mM Glycine pH 1.7 at flow rate of 50 μL/min. […] For this setup, 1 μg/mL of purified antibody was injected over a Protein A chip at 10 μL/min for 25-28 seconds. Data analysis for supernatant and purified samples were performed using BIAevaluation software (GE). All sensorgrams were double reference subtracted and fit using a 1:1 Langmuir binding model.
# T1 sequence (P05231 30-212 limits assumed): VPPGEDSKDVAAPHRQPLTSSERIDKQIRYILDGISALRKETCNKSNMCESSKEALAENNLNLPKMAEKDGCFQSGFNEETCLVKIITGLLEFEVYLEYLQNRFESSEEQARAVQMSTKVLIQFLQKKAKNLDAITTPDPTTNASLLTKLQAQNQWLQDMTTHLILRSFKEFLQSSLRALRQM
Kd,koff,kon,Binder
0.346 nM,0.00013 s⁻¹,375000 M⁻¹ s⁻¹,B1
0.275 nM,0.000206 s⁻¹,749000 M⁻¹ s⁻¹,B2
0.226 nM,0.000181 s⁻¹,803000 M⁻¹ s⁻¹,B3
0.346 nM,0.000159 s⁻¹,460000 M⁻¹ s⁻¹,B4
0.297 nM,0.000219 s⁻¹,737000 M⁻¹ s⁻¹,B5
0.464 nM,0.000171 s⁻¹,369000 M⁻¹ s⁻¹,B6
0.229 nM,0.000165 s⁻¹,718000 M⁻¹ s⁻¹,B7
0.412 nM,0.000137 s⁻¹,332000 M⁻¹ s⁻¹,B8
0.388 nM,0.000212 s⁻¹,546000 M⁻¹ s⁻¹,B9
0.284 nM,0.000135 s⁻¹,476000 M⁻¹ s⁻¹,B10
0.289 nM,0.000121 s⁻¹,420000 M⁻¹ s⁻¹,B11
0.452 nM,0.000161 s⁻¹,356000 M⁻¹ s⁻¹,B12
0.21 nM,0.000138 s⁻¹,654000 M⁻¹ s⁻¹,B13
0.394 nM,0.000149 s⁻¹,379000 M⁻¹ s⁻¹,B14
0.404 nM,0.000209 s⁻¹,517000 M⁻¹ s⁻¹,B15
0.354 nM,0.000139 s⁻¹,393000 M⁻¹ s⁻¹,B16
0.567 nM,0.000155 s⁻¹,273000 M⁻¹ s⁻¹,B17
0.445 nM,0.000169 s⁻¹,380000 M⁻¹ s⁻¹,B18

Kd,koff,kon,Binder
0.37 nM,0.000143 s⁻¹,386000 M⁻¹ s⁻¹,B19
0.423 nM,0.000174 s⁻¹,410000 M⁻¹ s⁻¹,B20
0.347 nM,0.000163 s⁻¹,469000 M⁻¹ s⁻¹,B21
0.0954 nM,5.69e-05 s⁻¹,597000 M⁻¹ s⁻¹,B22
1.34 nM,0.000703 s⁻¹,525000 M⁻¹ s⁻¹,B23
0.424 nM,0.000132 s⁻¹,311000 M⁻¹ s⁻¹,B24
0.467 nM,0.000162 s⁻¹,348000 M⁻¹ s⁻¹,B25
0.403 nM,0.000137 s⁻¹,340000 M⁻¹ s⁻¹,B26
0.39 nM,0.000179 s⁻¹,460000 M⁻¹ s⁻¹,B27
0.36 nM,0.000149 s⁻¹,415000 M⁻¹ s⁻¹,B28
0.426 nM,0.000152 s⁻¹,357000 M⁻¹ s⁻¹,B29
0.402 nM,0.000178 s⁻¹,444000 M⁻¹ s⁻¹,B30
0.423 nM,0.000231 s⁻¹,546000 M⁻¹ s⁻¹,B31
0.594 nM,0.000184 s⁻¹,309000 M⁻¹ s⁻¹,B32
0.00551 nM,2.67e-06 s⁻¹,484000 M⁻¹ s⁻¹,B33
0.281 nM,0.000223 s⁻¹,793000 M⁻¹ s⁻¹,B34
0.433 nM,0.000164 s⁻¹,379000 M⁻¹ s⁻¹,B35
